The target of experiment [1] is T1, human Tim-3 protein (human, UniProt Q8TDQ0 22-202, limits assumed). Description: Surface plasmon resonance.
Experiment [2] concerns the target T1, human Tim-3 protein. Description: surface plasmon resonance.
The target in experiment [3] is T2, mouse Tim-3 expressed on cell lines (mouse, UniProt Q8VIM0 20-281).
T2 construct: whole, on cells
The experiment can be described thus: FACS on cell lines expressing mouse Tim-3.

The target in experiment [4] is T1, human Tim-3 protein. Description: surface plasmon resonance. This is another data set of the same source.

Where two headings read alike, the source gives them in different places.

B1: mAb 15B4 (antibody, V domains shown)
VH: EVQLQQSGAEVVRPGALVKLSCKASGFNIKDYYMHWVRQRPEQGLEWIGWIDPENDNTIYDPKFQDRASITADTSSNTAYLQLSSLTSEDTAVYYCARDFGYVAWLVYWGQGTLVTVSA
VL: DIVMTQSQEFMSTSVGDRVSITCKASQNVDTAVAWYQQKPGQSPKLLIYSASNRYTGVPDRFTGTGSGTDFTLTINNMQSEDLADYFCQQYSSYPTFGGRTKLEIKR
notes: Mouse hybridoma antibody, IgG1 with kappa chain
For the molecule B1, binding in experiment [1] was characterised by a dissociation constant (Kd) of 0.32 nM. Moreover, in experiment [2], the koff came out at 0.00029 s⁻¹ and the kon was determined as 910000 M⁻¹ s⁻¹.

B2: mAb 50B5 (antibody, V domains shown)
VH: EVQLQQSGPELVKPGASMKISCKASGYSFTGYTINWVKQSHGKNLEWIGLFNPYNGGTTFNQKFKGKATLTVDKSSSTAYMELLSLTSEDSAVYYCARRYYGYDAMDYWGQGTSVTVSS
VL: NIMMTQSPSSLAVSAGEKVTMSCKSSQSVLYSSNQKNHLAWYQQKPGQSPKLLIYWASTRESGVPDRFTGSGSGTDFTLTISSVQAEDLAVYYCHQYLSSYTFGGGTKLEIK
notes: as for B1
As to B2, in experiment [3], the binding result is given as “no binding”. In experiment [1], this molecule came in with a dissociation constant Kd of 0.13 nM. In experiment [4], the koff is 2.35e-05 s⁻¹ and the kon was found to be 187000 M⁻¹ s⁻¹.

The values above are taken from patent publication US20250034248A1 (ALBERT EINSTEIN COLLEGE OF MEDICINE, published 2025).
